Laboratory results as given in patent US20230212312A1 (published 2023).

Assays:
[1] = molecular target: T1, human transferrin receptor (recombinant, SPR) (human, UniProt P02786 89-760); experiment: SPR 25C
T1 construct: also called huTfR; human transferrin receptor-biotinylated

[2] = molecular target: T1, human transferrin receptor …; experiment: SPR B4000 25C (Example 31)

T1 sequence (P02786 89-760 limits assumed): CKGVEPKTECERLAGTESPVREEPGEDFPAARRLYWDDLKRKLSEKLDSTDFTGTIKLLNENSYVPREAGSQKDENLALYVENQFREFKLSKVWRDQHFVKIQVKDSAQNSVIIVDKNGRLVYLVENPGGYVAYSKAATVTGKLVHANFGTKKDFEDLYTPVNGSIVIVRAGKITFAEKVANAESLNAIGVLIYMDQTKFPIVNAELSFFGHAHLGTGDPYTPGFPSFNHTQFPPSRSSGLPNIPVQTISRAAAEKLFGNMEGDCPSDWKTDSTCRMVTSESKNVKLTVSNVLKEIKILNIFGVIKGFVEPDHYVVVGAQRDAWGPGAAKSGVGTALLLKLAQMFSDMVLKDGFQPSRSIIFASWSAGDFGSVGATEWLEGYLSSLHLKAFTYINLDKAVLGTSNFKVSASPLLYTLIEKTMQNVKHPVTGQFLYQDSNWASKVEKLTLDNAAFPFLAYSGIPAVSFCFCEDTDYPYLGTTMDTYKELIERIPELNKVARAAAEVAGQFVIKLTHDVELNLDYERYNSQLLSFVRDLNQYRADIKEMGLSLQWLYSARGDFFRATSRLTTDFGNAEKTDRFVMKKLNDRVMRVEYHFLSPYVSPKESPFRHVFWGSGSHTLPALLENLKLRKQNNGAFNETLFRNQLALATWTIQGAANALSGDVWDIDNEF

Row | Binder | koff [1] [s⁻¹] | koff [2] [s⁻¹]
1 | 2/99 VH1/VL9-NYA (antibody, V domains shown) VH: VQLVETGGGLIQPGGSLRLSCAASGFSLSSYAMSWVRQAPGKGLEWVGYIWSGGSTDYADSVKGRFTISRDNSKNTLYLQMNSLRAEDTAVYYCARRYGTSYPDYGDANGFDPWGQGTLVTVSS VL: AIQLTQSPSSLSASVGDRVTITCRASQSISSYLAWYQQKPGKAPKLLIYRASTLASGVPSRFSGSGSGTDFTLTISSLQPEDFATYYCQQNYASSNVDNTFGGGTKVEI | 0.00246 | 
2 | 2/99 VH8/VL9-NYA (antibody, V domains shown) VH: QQLVETGGGLIQPGGSLRLSCAASGFSLSSYAMSWVRQAPGKGLEWIGYIWSGGSTDYASWAKGRFTISKTSTTLYLQMNSLRAEDTAVYYCARRYGTSYPDYGDANGFDPWGQGTLVTVSS VL: AIQLTQSPSSLSASVGDRVTITCRASQSISSYLAWYQQKPGKAPKLLIYRASTLASGVPSRFSGSGSGTDFTLTISSLQPEDFATYYCQQNYASSNVDNTFGGGTKVEI | 0.00101 | 
3 | 2/99 VH5/VL9-NYA (antibody, V domains shown) VH: QSMEETGGGLIQPGGSLRLSCAASGFSLSSYAMSWVRQAPGKGLEWVGYIWSGGSTDYADSVKGRFTISRDNSKNTLYLQMNSLRAEDTAVYYCARRYGTSYPDYGDANGFDPWGPGTLVTVSS VL: AIQLTQSPSSLSASVGDRVTITCRASQSISSYLAWYQQKPGKAPKLLIYRASTLASGVPSRFSGSGSGTDFTLTISSLQPEDFATYYCQQNYASSNVDNTFGGGTKVEI | 0.00203 | 
4 | 2/99 VH7/VL9-NYA (antibody, V domains shown) VH: QQLVETGGGLIQPGGSLRLSCAASGFSLSSYAMSWVRQAPGKGLEWIGYIWSGGSTDYASWAKGRFTISRDNSKNTLYLQMNSLRAEDTAVYYCARRYGTSYPDYGDANGFDPWGQGTLVTVSS VL: AIQLTQSPSSLSASVGDRVTITCRASQSISSYLAWYQQKPGKAPKLLIYRASTLASGVPSRFSGSGSGTDFTLTISSLQPEDFATYYCQQNYASSNVDNTFGGGTKVEI | 0.00121 | 
5 | 2/99 VH6/VL9-NYA (antibody, V domains shown) VH: QQLVETGGGLIQPGGSLRLSCAASGFSLSSYAMSWVRQAPGKGLEWIGYIWSGGSTDYADSVKGRFTISRDNSKNTLYLQMNSLRAEDTAVYYCARRYGTSYPDYGDANGFDPWGQGTLVTVSS VL: AIQLTQSPSSLSASVGDRVTITCRASQSISSYLAWYQQKPGKAPKLLIYRASTLASGVPSRFSGSGSGTDFTLTISSLQPEDFATYYCQQNYASSNVDNTFGGGTKVEI | 0.00141 | 
6 | 2/99 VH2/VL9-NYA (antibody, V domains shown) VH: EVQLVETGGGLIQPGGSLRLSCAASGFSLSSYAMSWVRQAPGKGLEWVGYIWSGGSTDYADSVKGRFTISRDNSKNTLYLQMNSLRAEDTAVYYCARRYGTSYPDYGDANGFDPWGQGTLVTVSS VL: AIQLTQSPSSLSASVGDRVTITCRASQSISSYLAWYQQKPGKAPKLLIYRASTLASGVPSRFSGSGSGTDFTLTISSLQPEDFATYYCQQNYASSNVDNTFGGGTKVEI | 0.00221 | 
7 | 2/99 VH0(rb)/VL1 (antibody, V domains shown) VH: QSMEESGGRLVTPGTPLTLTCTVSGFSLSSYAMSWVRQAPGKGLEWIGYIWSGGSTDYASWAKGRFTISKTSTTVDLKITSPTTEDTATYFCARRYGTSYPDYGDANGFDPWGPGTLVTVSS VL: DIQMTQSPSSLSASVGDRVTITCRASQSISSYLNWYQQKPGKAPKLLIYRASSLQSGVPSRFSGSGSGTDFTLTISSLQPEDFATYYCQQSYSSSNVDNTFGGGTKVEIK | 0.00569 | 
8 | 2/99 VH0(rb)/VL4 (antibody, V domains shown) VH: QSMEESGGRLVTPGTPLTLTCTVSGFSLSSYAMSWVRQAPGKGLEWIGYIWSGGSTDYASWAKGRFTISKTSTTVDLKITSPTTEDTATYFCARRYGTSYPDYGDANGFDPWGPGTLVTVSS VL: AYQMTQSPSSLSASVGDRVTITCRASQSISSYLSWYQQKPGKAPKLLIYRASTLASGVPSRFSGSGSGTDFTLTISSLQPEDFATYYCQQSYSSSNVDNTFGGGTKVEIK | 0.00136 | 
9 | 2/99 VH7/VL6 (antibody, V domains shown) VH: QQLVETGGGLIQPGGSLRLSCAASGFSLSSYAMSWVRQAPGKGLEWIGYIWSGGSTDYASWAKGRFTISRDNSKNTLYLQMNSLRAEDTAVYYCARRYGTSYPDYGDANGFDPWGQGTLVTVSS VL: AIQLTQSPSSLSASVGDRVTITCRASQSISSYLSWYQQKPGKAPKLLIYRASTLASGVPSRFSGSGSGTDFTLTISSLQPEDFATYYCQQSYSSSNVDNTFGGGTKVEIK | 0.00197 | 
10 | 2/99 VH9/VL2 (antibody, V domains shown) VH: QQLLESGGGLVQPGGSLRLSCAASGFTFSSYAMSWVRQAPGKGLEWVGYIWSGGSTDYADSVKGRFTISRDNSKNTLYLQMNSLRAEDTAVYYCAKRYGTSYPDYGDANGFDPWGQGTLVTVSS VL: DIQMTQSPSSLSASVGDRVTITCRASQSISSYLNWYQQKPGKAPKLLIYRASTLASGVPSRFSGSGSGTDFTLTISSLQPEDFATYYCQQSYSSSNVDNTFGGGTKVEIK | 0.00399 | 
11 | 2/99 VH0(rb)/VL2 (antibody, V domains shown) VH: QSMEESGGRLVTPGTPLTLTCTVSGFSLSSYAMSWVRQAPGKGLEWIGYIWSGGSTDYASWAKGRFTISKTSTTVDLKITSPTTEDTATYFCARRYGTSYPDYGDANGFDPWGPGTLVTVSS VL: DIQMTQSPSSLSASVGDRVTITCRASQSISSYLNWYQQKPGKAPKLLIYRASTLASGVPSRFSGSGSGTDFTLTISSLQPEDFATYYCQQSYSSSNVDNTFGGGTKVEIK | 0.00125 | 
12 | 2/99 VH0(rb)/VL3 (antibody, V domains shown) VH: QSMEESGGRLVTPGTPLTLTCTVSGFSLSSYAMSWVRQAPGKGLEWIGYIWSGGSTDYASWAKGRFTISKTSTTVDLKITSPTTEDTATYFCARRYGTSYPDYGDANGFDPWGPGTLVTVSS VL: AYQMTQSPSSLSASVGDRVTITCRASQSISSYLNWYQQKPGKAPKLLIYRASTLASGVPSRFSGSGSGTDFTLTISSLQPEDFATYYCQQSYSSSNVDNTFGGGTKVEIK | 0.00132 | 

More lines, now with the values ahead:

Row | koff [1] [s⁻¹] | koff [2] [s⁻¹] | Binder
13 |  | 0.00373 | 2/99 VH23-DASG/VK9-GYS (antibody, V domains shown) VH: QSMQESGPGLVKPSQTLSLTCTVSGFSLSSYAMSWIRQHPGKGLEWIGYIWSGGSTDYASWAKSRVTISKTSTTVSLKLSSVTAADTAVYYCARRYGTSYPDYGDASGFDPWGQGTLVTVSS VL: AIQLTQSPSSLSASVGDRVTITCRASQSISSYLAWYQQKPGKAPKLLIYRASTLASGVPSRFSGSGSGTDFTLTISSLQPEDFATYYCQQGYSSSNVDNTFGGGTKVEI
14 |  | 0.000755 | 2/99 VH23-DAQG/VK9-SYA (antibody, V domains shown) VH: QSMQESGPGLVKPSQTLSLTCTVSGFSLSSYAMSWIRQHPGKGLEWIGYIWSGGSTDYASWAKSRVTISKTSTTVSLKLSSVTAADTAVYYCARRYGTSYPDYGDAQGFDPWGQGTLVTVSS VL: AIQLTQSPSSLSASVGDRVTITCRASQSISSYLAWYQQKPGKAPKLLIYRASTLASGVPSRFSGSGSGTDFTLTISSLQPEDFATYYCQQSYASSNVDNTFGGGTKVEI
15 |  | 0.00233 | 2/99 VH23-DASG/VK9-CYS (antibody, V domains shown) VH: QSMQESGPGLVKPSQTLSLTCTVSGFSLSSYAMSWIRQHPGKGLEWIGYIWSGGSTDYASWAKSRVTISKTSTTVSLKLSSVTAADTAVYYCARRYGTSYPDYGDASGFDPWGQGTLVTVSS VL: AIQLTQSPSSLSASVGDRVTITCRASQSISSYLAWYQQKPGKAPKLLIYRASTLASGVPSRFSGSGSGTDFTLTISSLQPEDFATYYCQQCYSSSNVDNTFGGGTKVEI
16 |  | 0.000484 | 2/99 VH23-DASG/VK9-SYA (antibody, V domains shown) VH: QSMQESGPGLVKPSQTLSLTCTVSGFSLSSYAMSWIRQHPGKGLEWIGYIWSGGSTDYASWAKSRVTISKTSTTVSLKLSSVTAADTAVYYCARRYGTSYPDYGDASGFDPWGQGTLVTVSS VL: AIQLTQSPSSLSASVGDRVTITCRASQSISSYLAWYQQKPGKAPKLLIYRASTLASGVPSRFSGSGSGTDFTLTISSLQPEDFATYYCQQSYASSNVDNTFGGGTKVEI
17 | 0.000694 |  | 2/99 VH23-DANG/VL17 (antibody, V domains shown) VH: QSMQESGPGLVKPSQTLSLTCTVSGFSLSSYAMSWIRQHPGKGLEWIGYIWSGGSTDYASWAKSRVTISKTSTTVSLKLSSVTAADTAVYYCARRYGTSYPDYGDANGFDPWGQGTLVTVSS VL: AIQLTQSPSSLSASVGDRVTITCRASQSISSYLAWYQQKPGKAPKLLIYRASTLASGVPSRFSGSGSGTDFTLTISSLQPEDFATYYCQQTYSSSNVDNTFGGGTKVEIK
18 | 0.00116 |  | 2/99 VH23-DANG/VL6 (antibody, V domains shown) VH: QSMQESGPGLVKPSQTLSLTCTVSGFSLSSYAMSWIRQHPGKGLEWIGYIWSGGSTDYASWAKSRVTISKTSTTVSLKLSSVTAADTAVYYCARRYGTSYPDYGDANGFDPWGQGTLVTVSS VL: AIQLTQSPSSLSASVGDRVTITCRASQSISSYLSWYQQKPGKAPKLLIYRASTLASGVPSRFSGSGSGTDFTLTISSLQPEDFATYYCQQSYSSSNVDNTFGGGTKVEIK
19 | 0.00187 |  | 2/99 VH23-DANG/VL12 (antibody, V domains shown) VH: QSMQESGPGLVKPSQTLSLTCTVSGFSLSSYAMSWIRQHPGKGLEWIGYIWSGGSTDYASWAKSRVTISKTSTTVSLKLSSVTAADTAVYYCARRYGTSYPDYGDANGFDPWGQGTLVTVSS VL: DIQMTQSPSSLSASVGDRVTITCRASQSISSYLAWYQQKPGKAPKLLIYRASTLASGVPSRFSGSRSGTDFTLTISSLQPEDFATYYCQQHYSSSNVDNTFGGGTKVEIK
20 | 0.000715 |  | 2/99 VH23-DANG/VL2 (antibody, V domains shown) VH: QSMQESGPGLVKPSQTLSLTCTVSGFSLSSYAMSWIRQHPGKGLEWIGYIWSGGSTDYASWAKSRVTISKTSTTVSLKLSSVTAADTAVYYCARRYGTSYPDYGDANGFDPWGQGTLVTVSS VL: DIQMTQSPSSLSASVGDRVTITCRASQSISSYLNWYQQKPGKAPKLLIYRASTLASGVPSRFSGSGSGTDFTLTISSLQPEDFATYYCQQSYSSSNVDNTFGGGTKVEIK
21 | 0.000986 |  | 2/99 VH23-DANG/VL15 (antibody, V domains shown) VH: QSMQESGPGLVKPSQTLSLTCTVSGFSLSSYAMSWIRQHPGKGLEWIGYIWSGGSTDYASWAKSRVTISKTSTTVSLKLSSVTAADTAVYYCARRYGTSYPDYGDANGFDPWGQGTLVTVSS VL: DIVMTQSPDSLAVSLGERATINCKSSQSISSYLIWYQQKPGQPPKLLIYRASTLASGVPDRFSGSGSGTDFTLTISSLQAEDVAVYYCQQAYSSSNVDNTFGGGTKVEIK
